Values of other authors, collected in publication PMC5325457.

Biological target: Mms2 (Homo sapiens) (UniProt Q15819)
Chain of UniProt Q15819 (Q15819 2-145): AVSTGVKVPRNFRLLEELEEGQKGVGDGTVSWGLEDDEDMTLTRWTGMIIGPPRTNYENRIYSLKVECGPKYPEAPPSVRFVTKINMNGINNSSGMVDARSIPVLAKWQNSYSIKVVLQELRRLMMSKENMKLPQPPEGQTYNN

Kd: 49 nM
Substance: Ubc13 (from UniProt P61088)
